# Patent US20210338838A1 (UNIVERSITY OF UTAH RESEARCH FOUNDATION, published 2021)
# T1: monomeric C-reactive protein (CRP) (UniProt P02741 19-224)
# T1 sequence (looked up): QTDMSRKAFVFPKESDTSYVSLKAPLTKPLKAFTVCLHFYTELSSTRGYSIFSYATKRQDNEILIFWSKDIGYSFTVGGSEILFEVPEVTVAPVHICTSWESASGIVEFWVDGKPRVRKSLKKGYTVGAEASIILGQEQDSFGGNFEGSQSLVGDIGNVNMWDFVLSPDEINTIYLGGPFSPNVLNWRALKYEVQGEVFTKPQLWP
# Columns and labels:
# [1] = target: T1, monomeric C-reactive protein (CRP); test: rank of binding affinity among six proteins, plate-based binding assays
# [2] = target: T2, MDA-modified LDL particles; test: as above
# T2 construct: Not a plain protein; also called MDA-LDL; MDA adducts
# [3] = target: T2, MDA-modified LDL particles; test: plate-based binding assay, His-tagged recombinant protein from HEK293 cells
# [4] = target: T1, monomeric C-reactive protein (CRP); test: relative CRP-binding assay, detection antibody AbCam OX-24 (#Ab112197)
# [5] = target: T2, MDA-modified LDL particles; test: relative MDA-binding assay, detection antibody AbCam OX-24 (#Ab112197)
# [6] = target: T1, monomeric C-reactive protein (CRP); test: relative CRP-binding assay, percent of CFH-Risk, detection antibody AbCam OX-24 (#Ab112197)
# [7] = target: T2, MDA-modified LDL particles; test: relative MDA-binding assay, percent of CFH-Risk, detection antibody AbCam OX-24 (#Ab112197)
# [8] = target: T1, monomeric C-reactive protein (CRP); test: plate-based CRP binding assay, against protective CFH
binder,measurement,setting,value
"eCFHT-SE (engineered truncated CFH, I62-Y402, ending in SESFTL) (other, The chain is built from the first 445 residues shared by CFH and CFHT, less the 18-residue signal peptide, plus the printed C-terminal SESFTL; His-tagged and purified from HEK293 cells; also called protective eCFHT-SE; truncated product of eCFH/T v4.3) EDCNELPPRRNTEILTGSWSDQTYPEGTQAIYKCRPGYRSLGNIIMVCRKGEWVALNPLRKCQKRPCGHPGDTPFGTFTLTGGNVFEYGVKAVYTCNEGYQLLGEINYRECDTDGWTNDIPICEVVKCLPVTAPENGKIVSSAMEPDREYHFGQAVRFVCNSGYKIEGDEEMHCSDDGFWSKEKPKCVEISCKSPDVINGSPISQKIIYKENERFQYKCNMGYEYSERGDAVCTESGWRPLPSCEEKSCDNPYIPNGDYSPLRIKHRTGDEITYQCRNGFYPATRGNTAKCTSTGWIPAPRCTLKPCDYPDIKHGGLYHENMRRPYFPVAVGKYYSYYCDEHFETPSGSYWDHIHCTQDGWSPAVPCLRKCYFPYLENGYNQNYGRKFVQGKSIDVACHPGYALPKAQTTVTCMENGWSPTPRCIRVSESFTL",Binding Affinity Rank (1 best to 6 worst),[1],3 rank
same,Binding Affinity Rank (1 best to 6 worst),[2],4 rank
same,Kd,[3],305 nM
"protective CFH-I62-Y402-E936 (full-length complement factor H) (other, In the Western blot it was expressed in RPE1 cells from plasmid pCTM133; also called CFH-Protection) EDCNELPPRRNTEILTGSWSDQTYPEGTQAIYKCRPGYRSLGNIIMVCRKGEWVALNPLRKCQKRPCGHPGDTPFGTFTLTGGNVFEYGVKAVYTCNEGYQLLGEINYRECDTDGWTNDIPICEVVKCLPVTAPENGKIVSSAMEPDREYHFGQAVRFVCNSGYKIEGDEEMHCSDDGFWSKEKPKCVEISCKSPDVINGSPISQKIIYKENERFQYKCNMGYEYSERGDAVCTESGWRPLPSCEEKSCDNPYIPNGDYSPLRIKHRTGDEITYQCRNGFYPATRGNTAKCTSTGWIPAPRCTLKPCDYPDIKHGGLYHENMRRPYFPVAVGKYYSYYCDEHFETPSGSYWDHIHCTQDGWSPAVPCLRKCYFPYLENGYNQNYGRKFVQGKSIDVACHPGYALPKAQTTVTCMENGWSPTPRCIRVKTCSKSSIDIENGFISESQYTYALKEKAKYQCKLGYVTADGETSGSITCGKDGWSAQPTCIKSCDIPVFMNARTKNDFTWFKLNDTLDYECHDGYESNTGSTTGSIVCGYNGWSDLPICYERECELPKIDVHLVPDRKKDQYKVGEVLKFSCKPGFTIVGPNSVQCYHFGLSPDLPICKEQVQSCGPPPELLNGNVKEKTKEEYGHSEVVEYYCNPRFLMKGPNKIQCVDGEWTTLPVCIVEESTCGDIPELEHGWAQLSSPPYYYGDSVEFNCSESFTMIGHRSITCIHGVWTQLPQCVAIDKLKKCKSSNLIILEEHLKNKKEFDHNSNIRYRCRGKEGWIHTVCINGRWDPEVNCSMAQIQLCPPPPQIPNSHNMTTTLNYRDGEKVSVLCQENYLIQEGEEITCKDGRWQSIPLCVEKIPCSQPPQIEHGTINSSRSSQESYAHGTKLSYTCEGGFRISEENETTCYMGKWSSPPQCEGLPCKSPPEISHGVVAHMSDSYQYGEEVTYKCFEGFGIDGPAIAKCLGEKWSHPPSCIKTDCLSLPSFENAIPMGEKKDVYKAGEQVTYTCATYYKMDGASNVTCINSRWTGRPTCRDTSCVNPPTVQNAYIVSRQMSKYPSGERVRYQCRSPYEMFGDEEVMCLNGNWTEPPQCKDSTGKCGPPPPIDNGDITSFPLSVYAPASSVEYQCQNLYQLEGNKRITCRNGQWSEPPKCLHPCVISREIMENYNIALRWTAKQKLYSRTGESVEFVCKRGYRLSSRSHTLRTTCWDGKLEYPTCAKR",Binding Potential,[4],10
same,Binding Potential,[5],75
same,Binding Affinity Rank (1 best to 6 worst),[1],4 rank
same,Binding Affinity Rank (1 best to 6 worst),[2],2 rank
same,Kd,[3],222 nM
same,% FH-Risk,[6],656%
same,% FH-Risk,[7],251%
"protective CFHT-I62-Y402 (truncated complement factor H ending in SFTL) (other, In the Western blot it was expressed in RPE1 cells from pCTM134 and from eCFH/T v4.1; also called CFHT-Protection; native protective CFHT) EDCNELPPRRNTEILTGSWSDQTYPEGTQAIYKCRPGYRSLGNIIMVCRKGEWVALNPLRKCQKRPCGHPGDTPFGTFTLTGGNVFEYGVKAVYTCNEGYQLLGEINYRECDTDGWTNDIPICEVVKCLPVTAPENGKIVSSAMEPDREYHFGQAVRFVCNSGYKIEGDEEMHCSDDGFWSKEKPKCVEISCKSPDVINGSPISQKIIYKENERFQYKCNMGYEYSERGDAVCTESGWRPLPSCEEKSCDNPYIPNGDYSPLRIKHRTGDEITYQCRNGFYPATRGNTAKCTSTGWIPAPRCTLKPCDYPDIKHGGLYHENMRRPYFPVAVGKYYSYYCDEHFETPSGSYWDHIHCTQDGWSPAVPCLRKCYFPYLENGYNQNYGRKFVQGKSIDVACHPGYALPKAQTTVTCMENGWSPTPRCIRVSFTL",fold better binding affinity than CFH,[8],~10 fold
same,Binding Potential,[4],87
same,Binding Potential,[5],32
same,Binding Affinity Rank (1 best to 6 worst),[1],2 rank
same,Binding Affinity Rank (1 best to 6 worst),[2],1 rank
same,Kd,[3],219 nM
same,% FH-Risk,[6],5900%
same,% FH-Risk,[7],107%
